This is an account of results in US20140274782A1, “AFFINITY REAGENTS AND METHODS FOR DETECTION, PURIFICATION, AND PROTEOMIC ANALYSIS OF METHYLATED PROTEINS” (The Board of Trustees of the Leland Stanford Junior …, priority 2013, published 2014).

The test system of assay [1] is 3×MBT domain of L3MBTL1. Put plainly: SILAC proteomic pull-down 3×MBT vs 3×MBTD355N from 293T nuclear extract, LC-MS/MS. Format: binding, human. Conditions: SILAC ratio, 293T nuclear extract pull-down; * = protein identified in only one labeling experiment. The procedure:
Protein pull-downs were performed as described above using 600 μg of nuclear extract prepared with isotopic labels as indicated. After eluting with glutathione, 3×MBT domain was removed by dialysis into high salt and rebinding to GSH-sepharose. Bound proteins were separated by SDS-PAGE and analyzed by in-gel tryptic digest followed by LC-MS/MS. Peptides were identified using MaxQuant version 1.2.2.5 (Cox and Mann (2008) Nat. Biotechnol. 26, 1367-1372) and candidate methylated peptides were verified by manual inspection.
For stable isotope labeling by amino acids in cell culture (SILAC) experiments HEK 293T cells were grown for at least six doublings in DMEM for SILAC supplemented with 10% dialyzed fetal bovine serum (FBS), 230 mg/L L-proline and either 100 mg/L each of L-lysine and L-arginine (“light” medium), D4-L-lysine and ^13C6-L-arginine (“medium” media), or ^13C6^15N2-L-lysine and ^13C6^15N4-L-arginine (Thermo Scientific). Heavy methyl labeling used DMEM without L-Methionine or L-Cysteine supplemented with D3^13C-L-Methionine (Sigma), L-Cysteine (Sigma) and 10% dialyzed FBS.
600 μg of nuclear extract was incubated overnight rotating at 4° C. with 20 μl packed 3×MBT or 3×MBTD355N beads in a total volume of 250 μL with binding buffer. Supernatant was removed and saved for use as a loading control. Beads were washed 4×5 minutes with 0.5 mL binding buffer. Protein was eluted by incubating in 20 μL elution buffer (10 mg/mL glutathione in 50 mM Tris pH 8.0) rotating at 4° C. for four hours. Elutions from 3×MBT and 3×MBTD355N were combined and dialyzed overnight at 4° C. against 10,000× volume of dissociation buffer (50 mM Tris pH 7.5, 750 mM NaCl) in a 0.1 mL Slide-A-Lyzer MINI Dialysis Device with 3.5K molecular weight cutoff (Thermo Scientific). 80 μL of GSH-Sepharose was prepared by washing briefly three times with 0.5 mL binding buffer. Dialyzed proteins were added to the GSH-Sepharose and incubated 4 hours rotating at 4° C. to deplete the GST-fusion domains. Supernatant was transferred to a fresh 1.5 mL tube. Proteins were separated by SDS-PAGE on a 10% polyacrylamide gel and stained using SilverQuest Silver Staining Kit (Life Technologies). Lanes were excised, residual 3×MBT band was removed, and gel was diced into 0.5 mm cubes. Gel pieces were destained and processed by in-gel digestion (Carlson et al. (2011) Science Signaling 4) with sequencing grade trypsin (Promega) and the peptide sample was dried completely in a vacuum centrifuge. To prepare a loading control, 2 μL each of light and heavy nuclear extract were combined, 6 μL of 8M urea was added, proteins were denatured by adding 2 μL of 100 mM dithiothreitol in digest buffer (50 mM ammonium bicarbonate) and heating to 60° C. for 1 hour, cysteine was alkylated by adding 2.2 μL 100 mg/mL iodoacetamide in digest buffer and incubating 1 hour at room temperature in darkness, and proteins were digested by adding 80 μL trypsin (Promega) at 12.5 ng/μL in digest buffer and incubating overnight at room temperature in darkness. Digestion was stopped by adding 10 μL of 10% formic acid.
Each experiment consisted of two sets of pull-downs: “forward” labeling with 3×MBT incubated with light nuclear extract and 3×MBTD355N with medium extract, and a second “reverse” labeling experiment with the label conditions swapped. Proteins were included in the results if they were quantified in both labeling directions. To determine reproducibility the entire experiment including the label swap was duplicated using independent protein preparations and a mass spectrometer at another institution.
For 3×MBT pull-down experiment #1 the gel lane was processed and peptides were loaded off-line onto a first dimension trap column (Waters Xbridge, C18, 10 μm particle size, 100 Å pore size, 5 cm packing length, 150 μm column i.d.). […]

Assay [2] concerns 3×MBT domain of L3MBTL1. Kind of assay: Triple SILAC pull-down, 3xMBT/3xMBTD355N ratio (cytoplasmic, nuclear and chromatin fractions of 293T cells).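 For all read-outs here: proteins quantified with MaxQuant, requiring at least two unique peptides and quantification in both label directions, normalized to the mean of proteins from a digested loading control.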 Type of assay: binding, human. The following applies: for 3xMBT/D355N UNC Heavy: experiment with UNC0638 in heavy SILAC media; for 3xMBT/D355N UNC Light: experiment with UNC0638 in light SILAC media.
[3] abbreviates: SILAC ratio, pull-down 3xMBT vs 3xMBTD355N.
Setting [4] is: SILAC ratio 3xMBT vs 3xMBTD355N pull-down, 293T cells, all values in log base 2.

B1: MCM4: protein with methylated lysine identified in 3xMBT pull-down (protein, UniProt P33991 2-863, looked up)
DNA replication licensing …: SSPASTPSRRGSRRGRATPAQTPRSEDARSSPSQRRRGEDSTSTGELQPMPTSPGVDLQSPAAQDVLFSSPPQMHSSAIPLDFDVSSPLTYGTPSSRVEGTPRSGVRGTPVRQRPDLGSAQKGLQVDLQSDGAAAEDIVASEQSLGQKLVIWGTDVNVAACKENFQRFLQRFIDPLAKEEENVGIDITEPLYMQRLGEINVIGEPFLNVNCEHIKSFDKNLYRQLISYPQEVIPTFDMAVNEIFFDRYPDSILEHQIQVRPFNALKTKNMRNLNPEDIDQLITISGMVIRTSQLIPEMQEAFFQCQVCAHTTRVEMDRGRIAEPSVCGRCHTTHSMALIHNRSLFSDKQMIKLQESPEDMPAGQTPHTVILFAHNDLVDKVQPGDRVNVTGIYRAVPIRVNPRVSNVKSVYKTHIDVIHYRKTDAKRLHGLDEEAEQKLFSEKRVELLKELSRKPDIYERLASALAPSIYEHEDIKKGILLQLFGGTRKDFSHTGRGKFRAEINILLCGDPGTSKSQLLQYVYNLVPRGQYTSGKGSSAVGLTAYVMKDPETRQLVLQTGALVLSDNGICCIDEFDKMNESTRSVLHEVMEQQTLSIAKAGIICQLNARTSVLAAANPIESQWNPKKTTIENIQLPHTLLSRFDLIFLLLDPQDEAYDRRLAHHLVALYYQSEEQAEEELLDMAVLKDYIAYAHSTIMPRLSEEASQALIEAYVDMRKIGSSRGMVSAYPRQLESLIRLAEAHAKVRLSNKVEAIDVEEAKRLHREALKQSATDPRTGIVDISILTTGMSATSRKRKEELAEALKKLILSKGKTPALKYQQLFEDIRGQSDIAITKDMFEEALRALADDDFLTVTGKTVRLL
modifications: methylated lysine
notes: protein with methylated lysine identified in 3xMBT pull-down
On to B1, for which the “Protein Ratio 3xMBT/D355N” value with 3×MBT domain of L3MBTL1 [1] is recorded as 6.6. In addition, in the assay with 3×MBT domain of L3MBTL1 [2] (setting [3]), the “3xMBT/D355N UNC Heavy” value was 1.92 log base 2 and the “3xMBT/D355N UNC Light” value turned out to be 2.16 log base 2.

B2: SCML2: protein with methylated lysine identified in 3xMBT pull-down (protein, UniProt Q9UQR0 1-700, looked up)
Sex comb on midleg-like …: MGQTVNEDSMDVKKENQEKTPQSSTSSVQRDDFHWEEYLKETGSISAPSECFRQSQIPPVNDFKVGMKLEARDPRNATSVCIATVIGITGARLRLRLDGSDNRNDFWRLVDSPDIQPVGTCEKEGDLLQPPLGYQMNTSSWPMFLLKTLNGSEMASATLFKKEPPKPPLNNFKVGMKLEAIDKKNPYLICPATIGDVKGDEVHITFDGWSGAFDYWCKYDSRDIFPAGWCRLTGDVLQPPGTSVPIVKNIAKTESSPSEASQHSMQSPQKTTLILPTQQVRRSSRIKPPGPTAVPKRSSSVKNITPRKKGPNSGKKEKPLPVICSTSAASLKSLTRDRGMLYKDVASGPCKIVMSTVCVYVNKHGNFGPHLDPKRIQQLPDHFGPGPVNVVLRRIVQACVDCALETKTVFGYLKPDNRGGEVITASFDGETHSIQLPPVNSASFALRFLENFCHSLQCDNLLSSQPFSSSRGHTHSSAEHDKNQSAKEDVTERQSTKRSPQQTVPYVVPLSPKLPKTKEYASEGEPLFAGGSAIPKEENLSEDSKSSSLNSGNYLNPACRNPMYIHTSVSQDFSRSVPGTTSSPLVGDISPKSSPHEVKFQMQRKSEAPSYIAVPDPSVLKQGFSKDPSTWSVDEVIQFMKHTDPQISGPLADLFRQHEIDGKALFLLKSDVMMKYMGLKLGPALKLCYYIEKLKEGKYS
Consider B2, for which the “Protein Ratio 3xMBT/D355N” value with 3×MBT domain of L3MBTL1 [1] was found to be 1.7. In the assay with 3×MBT domain of L3MBTL1 [2] (setting [4]), the “3xMBT/D355N UNC Heavy” value stood at 1.39 log base 2 and the “3xMBT/D355N UNC Light” value is recorded as 1.28 log base 2.

B3: NHP2L1: protein with methylated lysine identified in 3xMBT pull-down (protein, UniProt P55769 1-128, looked up)
NHP2-like protein 1: MTEADVNPKAYPLADAHLTKKLLDLVQQSCNYKQLRKGANEATKTLNRGISEFIVMAADAEPLEIILHLPLLCEDKNVPYVFVRSKQALGRACGVSRPVIACSVTIKEGSQLKQQIQSIQQSIERLLV
Regarding B3, in the assay on 3×MBT domain of L3MBTL1 [1], the “Protein Ratio 3xMBT/D355N” value is 4.4*. For the same molecule, in the assay on 3×MBT domain of L3MBTL1 [2] (setting [3]), the “3xMBT/D355N UNC Heavy” value is recorded as 1.56 log base 2 and the “3xMBT/D355N UNC Light” value is listed as 3.46 log base 2.
